Source: patent US12331106B2, “Anti-angiopoietin-2 antibodies that induce Tie2 activation” (Institute for Basic Science, priority 2018, dated 2025)

What was measured:
hAng2 = target: T1, hAng2 (Homo sapiens, UniProt O15123); test: OCTET affinity of humanized anti-Ang2 antibodies against hAng2; type: binding; settings: OCTET, antibody fixed on AR2G biosensor, hAng2 50-0 nM, 1:1 binding model
T1 sequence (O15123 19-496): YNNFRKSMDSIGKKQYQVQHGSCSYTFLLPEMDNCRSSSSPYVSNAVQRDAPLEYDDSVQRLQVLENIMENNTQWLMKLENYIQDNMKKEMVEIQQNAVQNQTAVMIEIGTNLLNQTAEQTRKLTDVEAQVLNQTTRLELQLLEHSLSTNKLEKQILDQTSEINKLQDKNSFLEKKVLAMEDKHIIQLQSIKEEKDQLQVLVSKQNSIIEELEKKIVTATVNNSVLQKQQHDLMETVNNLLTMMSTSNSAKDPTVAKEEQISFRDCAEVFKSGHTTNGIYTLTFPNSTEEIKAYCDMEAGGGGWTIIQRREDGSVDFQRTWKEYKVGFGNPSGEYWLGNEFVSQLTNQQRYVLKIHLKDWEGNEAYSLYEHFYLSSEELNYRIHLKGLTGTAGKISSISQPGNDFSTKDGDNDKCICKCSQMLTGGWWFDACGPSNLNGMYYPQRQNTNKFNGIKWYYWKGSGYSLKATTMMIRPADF
Procedure: The affinity of humanized anti-Ang2 antibody against hAng2 was measured using OCTET® system (ForteBio). Specifically, buffer and samples were measured in total 200 μl/well using Black 96-well plates (96 well F-type black plates, Greiner). The biosensor used for affinity measurements was hydrated for 10 min before measurement with AR2G tip (ForteBio OCTET®). After the hydration, humanized anti-Ang2 antibody was diluted in 10 mM sodium acetate, pH 6.0 buffer at a concentration of 10 μg/ml, fixed on AR2G biosensor, and blocked with 1M ethanolamine. The recombinant hAng2 was diluted to 50, 25, 12.5, 6.25, 3.125, and 0 nM with 1× kinetic buffer, and subjected to association for 300 sec and dissociation for 900 sec. For affinity measurement (KD), association rate (K-on) and dissociation rate (K-off) were analyzed by binding curve (global) and fitted to 1:1 binding model using OCTET® data analysis v9.0.0.10 program.
The affinities of humanized 2C8 antibodies to hAng2 were in Table 15.

[1] = system: LLC (Lewis Lung Carcinoma) tumor; test: Tumor growth inhibition in LLC subcutaneous model; type: in vivo, C57BL/6 mice; settings: LLC s.c.; antibody 10 mg/kg i.p. every 2-3 days; Cpt 3 mg/kg i.p. once
Procedure: 2C8H11 anti-Ang2 antibody was tested for its ability to inhibit tumor growth in LLC (Lewis Lung Carcinoma) cell line tumor model. Specifically, LLC cell line (ATCC) was cultured in DMEM (GIBCO™) supplemented with 10% FBS (GIBCO™). LLC cells (1×10^6 in 100 μl of PBS) were subcutaneously injected into 6˜8-week-old C57BL/6 mice (Jackson Laboratory) which were anesthetized with a mixture of Ketamine and Xylazine. When the volume of the tumors reached 50˜100 mm^3, the mice were intraperitoneally administered with 10 mg/kg of 2C8H11 antibody every 2˜3 days. Cisplatin (Cpt) was injected intraperitoneally once at a dose of 3 mg/kg in both monotherapy and combination therapy groups. The changes in tumor volume was tracked over the following days. Tumor volume (V) was measured using the formula: V=(width^2×length)/2 V=(width^2×length)/2
The experiment was performed in 4 groups: Fc (control group), Fc+Cpt group, 2C8H11 group, and 2C8H11+Cpt group. […] Meanwhile, combined treatment with 2C8H11 and Cpt delayed tumor growth by 47% compared with Fc.

[2] = system: choroidal neovascularization (CNV); test: Laser-induced CNV model, intravitreal injection: CNV regression and vascular leakage; type: in vivo, mice; settings: 5 μg intravitreal at 7 days
Procedure: 2C8H11 antibody was tested for its ability to inhibit choroidal neovascularization (CNV), the hallmark of wet age-related macular degeneration (AMD) using laser-induced CNV model. After dilation of pupils with 5 mg/ml phenylephrine and 5 mg/ml tropicamide eye drops (Santen Pharmaceutical) and instillation of 0.5% proparacaine hydrochloride eye drops (Alcon) for topical anesthesia, laser photocoagulator (Lumenis Inc.) with a slit lamp delivery system was used with a glass coverslip as a contact lens to visualize the retina. Sufficient laser energy (532 nm wavelength, 250 mW power, 100 ms duration, 50 μm spot size) was delivered in 4 locations for each eye (the 3, 6, 9 and 12 o'clock positions of the posterior pole). Only burns that produced a bubble at the time of laser photocoagulation, indicating the rupture of the Bruch's membrane, were included in this study. Spots containing hemorrhage at the laser site were excluded from the analysis. To recapitulate a clinical situation, 2C8H11 (5 μg) was administered intravitreally to the mice at 7 days after laser photocoagulation (FIG. 13A). As a control or as for comparison, Fc or VEGF-Trap (5 μg each) was administered in the same manner to the mice. To intravitreally administer indicated reagents, ˜1 μl (5 mg/ml) containing 5 μg of each reagent was injected into the vitreal cavity using the Nanoliter 2000 micro-injector (World Precision Instruments) fitted with a glass capillary pipette. CD31+CNV volumes of the retinal pigment epithelium (RPE)-choroid-sclera flat mounts were calculated using the MATLAB® Image Processing Toolbox™ (Math Works, a comprehensive set of reference-standard algorithms and workflow apps for image processing, analysis, visualization, and algorithm development) at 14 days after laser photocoagulation. Anti-CD31 antibody (1:200, Millipore®) was used for the detection of endothelial cells of CNV. […] Combined fluorescein angiography (FA) and indocyanine green angiography (ICGA) enabled us to measure vascular leakage at the neovessels around the laser injury site. Continuous-wave laser modules at 488 nm and 785 nm were used as excitation sources for fluorescein and ICG, respectively. A raster scanning pattern of excitation lasers was achieved by a scanner system consisting of a rotating polygonal mirror (MC-5; Lincoln Laser) and a galvanometer-based scanning mirror (6230H; Cambridge technology), and delivered to the back aperture of an imaging lens. A high numerical aperture (NA) objective lens (PlanApo λ, NA 0.75; Nikon) was used as the imaging lens to provide wide-field fundus fluorescence images. Fluorescence signals detected by photomultiplier tubes (R9110; Hamamatsu Photonics) were digitized by frame grabber and reconstructed to images with size of 512×512 pixels per frame in real time. To visualize late-phase (6 min) FA and ICGA images utilizing the angiography system, 10 mg of fluorescein sodium (Alcon) and 0.15 mg of ICG (Daiichi Pharmaceutical) were administered intraperitoneally and intravenously, respectively. The imaging procedure was performed under systemic anesthesia and pupil dilation to improve the quality of images. Leaky areas from CNV were calculated as the total measured hyperfluorescent areas in FA images divided by the total measured CNV areas in ICGA images using a Java-based imaging software (ImajeJ; National Institutes of Health). […] Thus, the magnitude of the suppression of CNV and vascular leakage was quantitatively indistinguishable between VEGF-Trap and 2C8H11 in the mouse model of laser-induced CNV.

B1: 2C8H11: humanized anti-Ang2 human IgG1 antibody from mouse 2C8; VH SEQ ID NO: 55, VL SEQ ID NO: 56 (antibody, V domains shown)
VH: QVQLVQSGAEVKKPGASVKVSCKASGYTFTSYWMHWVRQAPGQGLEWMGMIDPSDSETRLNQKFKDRVTMTRDTSTSTVYMELSSLRSEDTAVYYCARRFYYGSDWYFDVWGQGTLVTVSS
VL: DIQLTQSPSFLSASVGDRVTITCKASQDVGTAVAWYQQKPGKAPKLLIYWASTRHTGVPSRFSGSGSGTEFTLTISSLQPEDFATYYCQQYSSYPLTFGQGTKVEIK
modifications: human IgG1 constant regions; VH; VL
Kdis (hAng2): 1.4e-05 s⁻¹
Kon (hAng2): 66000 M⁻¹ s⁻¹
tumor growth inhibition compared with Fc [1]: 29%
vascular leakage suppression compared with Fc ([2]; FA/ICGA, 14 days after laser photocoagulation): 38.3%
CNV regression compared with Fc (CD31+ CNV volume) ([2]; measured 14 days after laser photocoagulation): 65.3%
vascular leakage reduction between 6 and 14 days after laser photocoagulation ([2]; within-group): 50.0%
